Publication PMC12199146, “Unique conformational dynamics and protein recognition of A-to-I hyper-edited dsRNA”

T1: Endonuclease V (EcEndoV), wild-type (Escherichia coli, UniProt P68739 1-223)
T1 sequence: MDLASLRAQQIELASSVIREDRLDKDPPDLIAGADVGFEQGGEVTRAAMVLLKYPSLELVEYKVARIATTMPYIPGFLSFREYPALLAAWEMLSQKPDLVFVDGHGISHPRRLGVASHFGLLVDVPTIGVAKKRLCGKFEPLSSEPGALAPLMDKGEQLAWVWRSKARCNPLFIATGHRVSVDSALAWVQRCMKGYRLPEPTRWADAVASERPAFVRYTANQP

B1: A-RNA (non-edited 20-mer dsRNA) (dsRNA)
RNA 1: ACUGGACAAAUACUCCGAGG
RNA 2: CCUCGGAGUAUUUGUCCAGU

Legend:
[1] = molecular target: T1, Endonuclease V (EcEndoV), wild-type; test: EMSA; EMSA: 25 mM sodium phosphate pH 6.5, 50-300 mM NaCl (500 mM in Fig. S17E), 1 mM DTT, 5 mM MgCl2, 30 min on ice, 2 pmol RNA in 10 ul, 12% native gel in TBE at room temperature; NMR: 25 mM sodium phosphate pH 6.5, 150 mM NaCl, 5 mM MgCl2, 1 mM DTT, 5% D2O, 50 uM RNA, 288 K; conditions: protein: recombinant; tags: N-terminal His-tag removed with TEV protease; single strand
[2] = molecular target: T1, Endonuclease V (EcEndoV), wild-type; test: NMR imino line broadening; 5 mM Mg2+, 150 mM NaCl, 288 K, 1:1; backbone interaction, non-specific; EMSA: 25 mM sodium phosphate pH 6.5, 50-300 mM NaCl (500 mM in Fig. S17E), 1 mM DTT, 5 mM MgCl2, 30 min on ice, 2 pmol RNA in 10 ul, 12% native gel in TBE at room temperature; NMR: 25 mM sodium phosphate pH 6.5, 150 mM NaCl, 5 mM MgCl2, 1 mM DTT, 5% D2O, 50 uM RNA, 288 K; conditions: protein: recombinant; tags: N-terminal His-tag removed with TEV protease; 20-mer duplex, residues 1-40

Binder	binding result [1]	binding result [2]
CCUCGGAGUAUUUGUCCAGU (ssRNA) [ssRNA substrate(s) without inosine]	no binding	
B1		binds
